For the assay, the target named is angiotensin II-bound mouse angiotensin II type 1 receptor F117W Δ324 (mouse | human). Nature of the assay: cross-linking + other: high-mass MALDI-MS; angiotensin II-bound AT1R (angII-AT1R), 5 µM, mixed with partner protein at various concentrations, 1 h at room temperature, BS(PEG)9 cross-linking, 1.0 µM β-Gal as internal standard; 20 mM Hepes pH 7.5, 40 mM NaCl, 0.01% LMNG; Ka = 1/Kd.

B1: mini-Gq (domain or fragment)
chain: GIEKQLQKDKQVYRATHRLLLLGADNSGKSTIVKQMRILHGGSGGSGGTSGIFETKFQVDKVNFHMFDVGGQRDERRKWIQCFNDVTAIIFVVDSSDYNRLQEALNDFKSIWNNRWLRTISVILFLNKQDLLAEKVLAGKSKIEDYFPEFARYTTPEDATPEPGEDPRVTRAKYFIRDEFLRISTASGDGRHYCYPHFTCAVDTENARRIFNDCKDIILQMNLREYNLV
In the case of B1, the Ka was 480000 M⁻¹.

The values above are taken from PMC8346855.
